According to patent publication US20220227866A1 (VELOSBIO, published 2022):
Several values for one entry are separate records, joined by “and”; a condition that tells them apart may be missing. Identical values can stand only once.

How the values were obtained:
[1] = target: T1, human ROR1 on cells (human, UniProt Q01973 30-937); experiment: cell-based or functional assay
[2] = target: T2, human CD3 on Jurkat cells (human, UniProt P09693 23-182; P04234 22-171; P07766 23-207); experiment: flow cytometry on Jurkat cells
T2 construct: GenBank NP_000064.1, NP_000723.1, NP_000724.1
T2 sequence (P09693 23-182 limits assumed, chain 1 of 3): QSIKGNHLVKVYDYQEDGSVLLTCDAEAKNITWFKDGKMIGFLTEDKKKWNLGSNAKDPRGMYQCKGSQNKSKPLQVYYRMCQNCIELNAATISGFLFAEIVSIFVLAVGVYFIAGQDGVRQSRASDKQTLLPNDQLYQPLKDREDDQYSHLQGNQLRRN
T2 sequence (P04234 22-171 limits assumed, chain 2 of 3): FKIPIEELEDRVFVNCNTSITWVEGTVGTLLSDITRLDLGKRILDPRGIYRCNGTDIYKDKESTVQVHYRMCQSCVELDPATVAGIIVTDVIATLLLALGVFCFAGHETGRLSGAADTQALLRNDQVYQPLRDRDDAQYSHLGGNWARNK
T2 sequence (P07766 23-207 limits assumed, chain 3 of 3): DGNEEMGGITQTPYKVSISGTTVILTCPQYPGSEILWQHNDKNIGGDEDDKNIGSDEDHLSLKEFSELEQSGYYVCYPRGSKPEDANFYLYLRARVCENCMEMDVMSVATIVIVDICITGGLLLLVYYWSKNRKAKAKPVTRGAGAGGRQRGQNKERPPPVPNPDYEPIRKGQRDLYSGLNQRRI
Procedure, shortened: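 Jurkat cells (2.5E5 per condition) incubated with bispecific molecule in PBS/2% FBS on ice for 20 min, then detected with PE-labelled anti-human Fc (1:500, 20 min on ice). Cells fixed in 2% paraformaldehyde and bound antibody measured by flow cytometry.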

[3] = target: T3, soluble biotinylated human ROR1 extracellular domain (human, UniProt Q01973 30-406, biotinylated with EZ-Link Sulfo-NHS-LC-Biotin at a 1:5 molar ratio); experiment: ELISA, captured construct, biotinylated ROR1 titrated; first of the two values given
T3 construct: Acro Biosystems cat; whole entry named; also called b-ROR1; soluble b-ROR1
T3 sequence (Q01973 30-406 limits assumed): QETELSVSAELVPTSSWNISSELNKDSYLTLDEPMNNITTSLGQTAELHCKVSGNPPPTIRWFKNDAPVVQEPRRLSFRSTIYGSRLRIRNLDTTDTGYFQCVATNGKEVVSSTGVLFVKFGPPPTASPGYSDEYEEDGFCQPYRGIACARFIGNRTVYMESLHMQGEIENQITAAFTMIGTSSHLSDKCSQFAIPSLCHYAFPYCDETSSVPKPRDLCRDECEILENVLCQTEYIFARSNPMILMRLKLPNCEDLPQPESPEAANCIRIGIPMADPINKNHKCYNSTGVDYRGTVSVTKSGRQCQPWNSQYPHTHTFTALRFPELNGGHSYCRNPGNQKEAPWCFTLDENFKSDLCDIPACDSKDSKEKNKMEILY
Procedure: (§1) To measure the binding of bispecific constructs to soluble ROR1, a 96-well Costar-3366 plate was coated with 50 μL/well of 2 μg/mL goat anti-human kappa (Southern Biotech cat. #2060-01) in PBS overnight at 4° C. The plate was rinsed once with PBS-T, blocked with 100 μL/well 5% M-P for 1 h at 25° C., rinsed once with PBS-T, and 2 μg/mL of the bispecific binding molecule was added and incubated for 1 h at 25° C. The plate was washed three times with PBS-T. Biotinylated ROR1 was diluted serially, 3-fold in 5% M-P and was incubated for 1 h at 25° C. (50 μL/well). The plate was washed three times with PBS-T. To detect the binding of b-ROR1, 50 μL/well Neutravidin-HRP (Pierce cat. #31030) diluted 1:5000 in 1% BSA-PBS was added for 1 h at 25° C. […] The reaction was terminated by the addition of 2 N H₂SO₄ and the A450 was determined using a Spectramax plate reader.
(§2) The stronger binding observed with bivalent constructs versus monovalent constructs in cell assays and ELISAs in which the antigen is immobilized is consistent with an avidity effect. To determine if this was the case, binding to soluble monomeric ROR1 was assessed by immobilizing the bispecific binding molecules on a microtiter plate coated with goat anti-human kappa antibody and titrating biotinylated RORL. […]

[4] = target: T1, human ROR1 on cells; experiment: cell-based or functional assay; remark: listed apart in the source
[5] = target: T4, recombinant human ROR1 extracellular domain (human, UniProt Q01973 30-406); experiment: ELISA, immobilised ROR1 ECD, construct titrated
T4 construct: Bought (Acro Biosystems cat. R01-H522Y); whole entry named; also called ROR1-ECD; immobilized ROR1
T4 sequence (Q01973 30-406 limits assumed): as above

[6] = target: T3, soluble biotinylated human ROR1 …; experiment: ELISA, captured construct, biotinylated ROR1 titrated; second of the two values given
Procedure: as §1, §2

[7] = target: T1, human ROR1 on cells; experiment: flow cytometry, ROR1-transfected MEC cells, 30 µg/mL
Procedure: Internalization of bispecific binding molecules was measured using a pulse-chase methodology that quantitates non-internalized, cell surface antibody at 0, 30, 60, 120, 180, and 240 minutes using flow cytometry. ROR1-transfected MEC cells were washed with cold PBS and resuspended at 1×10⁷ per mL in cold incubation buffer (RPMI with 2% FBS—Fisher/Gibco cat. #16140071). Then, 3.5×10⁶ cells were aliquoted to microcentrifuge tubes for each bispecific construct tested. An equal volume (350 μL) of bispecific binding molecule was combined with the cells to make a final concentration of 30 μg/mL. […] Cells and antibody were incubated on ice for 20 minutes, washed five times with 1 mL of cold FACS buffer (PBS with 2% FBS), and resuspended in 1.4 mL of incubation buffer. Subsequently, the samples were incubated at 37° C. for 0, 30, 60, 120, 180, and 240 minutes after which time 200 μL of each sample was transferred to ice to halt internalization.
Samples for each construct and timepoint were split in half (100 μL each) and spun down. Half of the samples were resuspended in 100 μL secondary antibody (goat anti-human IgG-PE, Fc-gamma specific—eBiosciences cat. #12-4998) to detect bound bispecific constructs. The other half was stained with 100 μL cocktail of UC961-PE and 4A5-AlexaFluor647. […] Subsequently, fixed cells were washed once with FACS buffer and analyzed.

[8] = target: T3, soluble biotinylated human ROR1 …; experiment: ELISA, captured construct, biotinylated ROR1 titrated
[9] = target: T3, soluble biotinylated human ROR1 …; experiment: ELISA, captured antibody, biotinylated ROR1 titrated
Procedure: as §1, §2

[10] = target: T4, recombinant human ROR1 extracellular …; experiment: ELISA, immobilised ROR1 ECD, antibody titrated
Procedure: A 96-well Costar-3366 plate was coated with 50 μL/well of 2 μg/mL […] (Acro Biosystems cat. #R01-H522Y) in PBS overnight at 4° C. The plate was rinsed once with PBS containing 0.05% Tween 20 (PBS-T) and blocked with 100 μL/well of 5% non-fat milk in PBS (5% M-P) for 1 h at 25° C. Antibody samples were serially diluted 2-fold using 5% M-P and were incubated for 1 h at 25° C. (50 μL/well). The plate was washed three times with PBS-T and 50 μL/well anti-human kappa, HRP conjugate (Southern Biotech cat. #2060-05) diluted 10,000-fold in 5% M-P was added for 1 h at 25° C. The plate was washed three times with PBS-T, developed with 50 μL/well 1-Step Ultra TMB-ELISA (Thermo Scientific cat. #34028). The reaction was terminated by the addition of 2 N H₂SO₄ and the A450 was determined using a Spectramax plate reader.
Next, the binding of bispecific binding molecules to ROR was characterized by ELISA using recombinantly-expressed extracellular domain of RORL. ROR was immobilized on a microtiter plate, the bispecific binding molecules were titrated, and binding was quantitated with an anti-human kappa-HRP reagent. Consistent with the cell binding data, all constructs bound ROR1 in a concentration-dependent manner (FIG. 6). Moreover, monovalent ROR1 constructs 13-15 bound less tightly than all but two of the bivalent constructs.

T1 sequence (Q01973 30-937 limits assumed): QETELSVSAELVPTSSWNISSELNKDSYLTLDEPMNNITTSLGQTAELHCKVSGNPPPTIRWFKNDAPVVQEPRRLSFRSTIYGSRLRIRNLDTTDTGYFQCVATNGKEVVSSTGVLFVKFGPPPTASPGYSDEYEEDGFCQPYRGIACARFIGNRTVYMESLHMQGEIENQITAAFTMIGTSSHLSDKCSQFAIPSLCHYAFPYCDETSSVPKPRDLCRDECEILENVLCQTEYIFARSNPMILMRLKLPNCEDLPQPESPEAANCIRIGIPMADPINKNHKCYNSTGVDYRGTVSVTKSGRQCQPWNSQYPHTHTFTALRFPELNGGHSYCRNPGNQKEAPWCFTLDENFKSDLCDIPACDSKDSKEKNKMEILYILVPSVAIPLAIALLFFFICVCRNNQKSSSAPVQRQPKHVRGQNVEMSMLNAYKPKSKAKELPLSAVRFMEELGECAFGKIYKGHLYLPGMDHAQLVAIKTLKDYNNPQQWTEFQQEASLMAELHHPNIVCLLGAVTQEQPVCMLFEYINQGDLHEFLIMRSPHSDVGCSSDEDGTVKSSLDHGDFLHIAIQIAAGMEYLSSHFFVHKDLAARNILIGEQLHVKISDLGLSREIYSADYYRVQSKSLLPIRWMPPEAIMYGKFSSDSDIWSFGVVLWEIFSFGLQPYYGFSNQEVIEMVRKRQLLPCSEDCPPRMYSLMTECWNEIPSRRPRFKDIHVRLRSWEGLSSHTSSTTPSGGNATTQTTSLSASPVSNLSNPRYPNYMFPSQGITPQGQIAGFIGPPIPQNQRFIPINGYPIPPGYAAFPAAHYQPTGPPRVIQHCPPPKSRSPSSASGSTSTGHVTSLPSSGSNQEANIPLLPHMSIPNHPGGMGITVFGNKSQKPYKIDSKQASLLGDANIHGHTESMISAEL

B1: Bispecific construct 9 (bispecific antibody, human IgG1, kappa)
heavy: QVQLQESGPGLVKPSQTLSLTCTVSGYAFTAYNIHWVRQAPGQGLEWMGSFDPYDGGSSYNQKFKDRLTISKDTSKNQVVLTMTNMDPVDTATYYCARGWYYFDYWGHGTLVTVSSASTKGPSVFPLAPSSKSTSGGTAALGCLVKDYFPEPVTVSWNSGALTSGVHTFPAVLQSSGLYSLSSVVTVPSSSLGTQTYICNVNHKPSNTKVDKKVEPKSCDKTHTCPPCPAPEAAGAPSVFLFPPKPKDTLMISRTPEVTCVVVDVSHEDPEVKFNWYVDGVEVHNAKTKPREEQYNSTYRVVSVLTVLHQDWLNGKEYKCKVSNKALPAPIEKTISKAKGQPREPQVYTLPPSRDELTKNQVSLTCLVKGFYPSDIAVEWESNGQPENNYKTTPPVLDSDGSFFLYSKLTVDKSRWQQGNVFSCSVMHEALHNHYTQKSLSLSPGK
light: DIVMTQTPLSLPVTPGEPASISCRASKSISKYLAWYQQKPGQAPRLLIYSGSTLQSGIPPRFSGSGYGTDFTLTINNIESEDAAYYFCQQHDESPYTFGEGTKVEIKRTVAAPSVFIFPPSDEQLKSGTASVVCLLNNFYPREAKVQWKVDNALQSGNSQESVTEQDSKDSTYSLSSTLTLSKADYEKHKVYACEVTHQGLSSPVTKSFNRGECGGGGSGGGGSEVQLVESGGGLVQPGGSLRLSCAASGFTFNTYAMNWVRQAPGKGLEWVARIRSKYNNYATYYADSVKGRFTISRDDSKNTLYLQMNSLRAEDTAVYYCVRHGNFGNSYVSYFAYWGQGTTVTVSSGGGGSGGGGSGGGGSGGGGSEIVVTQSPATLSVSPGERATLSCRSSTGAVTAANYANWVQEKPGQAFRGLIGGANKRAPGVPARFSGSLSGDEATLTISSLQSEDFAVYYCALFYSNLWVFGQGTKLEIK
notes: anti-CD3 scFv Ab10 (SP34-based); ROR1 arm Ab1; valency 2/2
[1]
  EC50, LDH release, ROR1-transfected MEC, one PBMC donor: < 0.1 ng/mL
[2]
  binding result: binds
[3]
  Kd: 0.268 nM
[4]
  EC50, LDH release, A549: 9.95 ng/mL and 49.8 pM
  EC50, LDH release, A4573: 9.71 ng/mL and 48.6 pM
  EC50, LDH release, JeKo-1: 1.71 ng/mL and 8.5 pM
  EC50, LDH release, MDA-MB-468: 5.55 ng/mL and 27.8 pM
  EC50, LDH release, Mino: 0.75 ng/mL and 3.8 pM
  EC50, LDH release, NCI-H1975: 2.3 ng/mL and 11.5 pM
  EC50, LDH release, Saos-2: 14.6 ng/mL and 73.2 pM
  Max. LDH Release, Mino: 75%
[5]
  Kd: 0.158 nM
[6]
  Kd: 0.229 nM

B2: Bispecific construct 13 (bispecific antibody, human IgG1, kappa)
heavy 1: not shown
heavy 2: QVQLVQSGGGVVQPGRSLRLSCKASGYTFTRYTMHWVRQAPGKGLEWIGYINPSRGYTNYNQKVKDRFTISRDNSKNTLYLQMDSLRAEDTAVYYCARYYDDHYSLDYWGQGTTVTVSSGGGGSGGGGSGGGGSGGGGSDIQMTQSPSSLSASVGDRVTITCSASSSVSYMNWYQQKPGKAPKRWIYDTSKLASGVPSRFSGSGSGTDFTFTISSLQPEDIATYYCQQWSSNPFTFGQGTKLEIKEPKSSDKTHTCPPCPAPEAAGAPSVFLFPPKPKDTLMISRTPEVTCVVVDVSHEDPEVKFNWYVDGVEVHNAKTKPREEQYNSTYRVVSVLTVLHQDWLNGKEYKCKVSNKALPAPIEKTISKAKGQPREPQVYTLPPSRDELTKNQVSLSCAVKGFYPSDIAVEWESNGQPENNYKTTPPVLDSDGSFFLVSKLTVDKSRWQQGNVFSCSVMHEALHNHYTQKSLSLSPGK
light: DIVMTQTPLSLPVTPGEPASISCRASKSISKYLAWYQQKPGQAPRLLIYSGSTLQSGIPPRFSGSGYGTDFTLTINNIESEDAAYYFCQQHDESPYTFGEGTKVEIKRTVAAPSVFIFPPSDEQLKSGTASVVCLLNNFYPREAKVQWKVDNALQSGNSQESVTEQDSKDSTYSLSSTLTLSKADYEKHKVYACEVTHQGLSSPVTKSFNRGEC
notes: ROR1 arm Ab1; CD3 valency 1, ROR1 valency 1
[2]
  binding result: binds
[7]
  binding extent relative to the saturated MFI of constructs 1 and 7 at time 0: ~80%
[4]
  EC50, LDH release, ROR1-transfected MEC: 12 ng/mL and 96 pM
  Max. LDH Release, ROR1-transfected MEC: 46%
[5]
  Kd: 0.194 nM
[8]
  Kd: 0.226 nM

B3: parental anti-ROR1 IgG (Ab1) (antibody, V domains shown)
VH: QVQLQESGPGLVKPSQTLSLTCTVSGYAFTAYNIHWVRQAPGQGLEWMGSFDPYDGGSSYNQKFKDRLTISKDTSKNQVVLTMTNMDPVDTATYYCARGWYYFDYWGHGTLVTVSS
VL: DIVMTQTPLSLPVTPGEPASISCRASKSISKYLAWYQQKPGQAPRLLIYSGSTLQSGIPPRFSGSGYGTDFTLTINNIESEDAAYYFCQQHDESPYTFGEGTKVEIKR
notes: also called Control; parental IgG
[9]
  Kd: 0.158 nM and 0.145 nM
[10]
  Kd: 0.037 nM
